Source: patent publication US20130273553A9, “STABILIZATION OF CYCLIC PEPTIDE STRUCTURES” (priority 2007, published 2013)

Legend:
LexA = LexA (Escherichia coli, UniProt P0A7C2); details: BL21-CP cells expressing the lariat, 0.1 μg/mL MMC, 0-3 hours
From the text: FIG. 21. Biological Activity of L2 Lariat and Cyclic Peptide. […] Error bars represent the standard deviation of three independent experiments.

[1] = system: SOS-regulated sulA promoter (sulA-GFP); test: MMC-induced expression of sulA-GFP (SOS response genes), flow cytometry; assay type: cell-based, E. coli; details: SMR6039-DE3 with pETIL-L2, IPTG-induced versus uninduced, 0.1 μg/mL MMC
From the text: (§1) FIG. 21. Biological Activity of L2 Lariat and Cyclic Peptide.
We used the SMR6039 E. coli strain, which expresses GFP under the control of a SOS-regulated sulA promoter (Hastings, P. J. et al. (2004) PLoS Biol. 2:e399) to monitor induction of the SOS response pathway. We used the λDE3 Lysogenization Kit (Novagen) to modify SMR6039 to express T7 RNA polymerase, which allows expression of the L.2 lariat from the T7 promoter in pETIL-L2 plasmid. […] We measured the GFP fluorescence of the samples using flow cytometery (Epics X L, Coultier, Mississauga, ON). We scored cells as positive for SOS induction in they expressed more than one fluorescence unit of GFP.

BL21-CP cells = test: Bacterial viability (survival) assay with and without MMC; assay type: cell-based, E. coli; details: one hour
Protocol: as §1
FIG. 22. […] Survival assay for BL21-CP cells treated synthetic linear L2 peptide. Cell survival is reported relative to the untreated control.
We performed cell viability assays as described by Lin and Little (Lin, L. L. & Little, J. W. (1988) Bacteriol. 170:2163-2173). For assays where L2 lariat is expressed from pET28b plasmid, we cultured BL21(DE3)-CP containing pETIL-L2 or pETIL-01 to an OD600 of 0.4 in LB-KAN at 37° C. We split the samples in two and induced one sample with 1 mM IPTG for 1 hour and left the other the other sample uninduced. […] We removed 10 μL and diluted it […] in ice cold LB (1 mL) for a zero time point control. We incubated the remaining sample at 37° C. for 1 hour and then removed 10 μL and diluted 1000-fold into 1 mL ice-cold LB. We plated a 60 μl aliquot from the 0 and 1 hour samples on LB plates and incubated the plates at 37° C. overnight.

[2] = Amount of lactone-cyclized L2 lariat, ESI-TOF MS and Na18OH cleavage; assay type: physicochemical
From the text: FIG. 17. Analysis of L2 Lariat. […] (i) Yeast growth on nonselective His^−,Trp^− glucose media. […] (i) Lariat cyclized through a lactone bond. (ii) Lariat cleaved prior to Na^18OH treatment.
FIG. 20. Quantification of Lariat Prior to MS analysis. (a) Analysis of ^18O incorporation at the tyrosine carboxylic acid at position (IN−1). Trypsin digest of the Na^18OH treated lariat produces a peptide fragment containing tyrosine at position (IN−1) ([…]). The ^16O product has a calculated mass of 966.420 m/z and the ^18O product has a calculated mass of 968.420 m/z. (b) Mass spectrometry analysis of […] peptide fragment from the Na^16OH or Na^18OH treated samples over layed with the theoretical isotope distribution (MS-ISOTOPE software). In the Na^18OH treated sample there is a large deviation from the theoretical distribution indicating the presence of more than one peptide. […] The 1+ and 2+ charged fragments were analyzed and similar results were observed. Only the 1+ charge is shown. (d) Overlay of the sum of the calculated contributions of the ^18O and […] on the observed […] peptide fragment spectrum. (e) Analysis of ^18O incorporation at the serine side chain at position (IC+1). Trypsin digest of the Na^18OH treated lariat produces a peptide fragment containing serine at position (IC+1) ([…]). The mass of this fragment is 2590.352 m/z corresponding to a product 1 Da heavier than the predicted ^18O incorporated product. A 1 Da shift can be attributed to deamidation of asparagine. […] The 2+, 3+4+and 5+charged fragments were analyzed and similar results were obtained. […] (h) Overlay of the sum of the calculated contributions of the ^18O and ^16O peptides on the observed […] peptide fragment spectrum.
We used LC-ESI-TOF MS to confirm the molecular weight of the His-tag lariat purified from E. coli. To confirm the presence of the lariat lactone prior to MS analysis, we treated His-tag lariat with 0.5 M Na^18OH, purified the products using reverse-phase HPLC, digested them with trypsin, and analyzed the molecular weight of the trypsin fragments using LC-ESI-TOF MS. […]

[3] = His-tag lariat from pETIL-L2 in BL21-CP

Sequence of LexA (P0A7C2 whole entry): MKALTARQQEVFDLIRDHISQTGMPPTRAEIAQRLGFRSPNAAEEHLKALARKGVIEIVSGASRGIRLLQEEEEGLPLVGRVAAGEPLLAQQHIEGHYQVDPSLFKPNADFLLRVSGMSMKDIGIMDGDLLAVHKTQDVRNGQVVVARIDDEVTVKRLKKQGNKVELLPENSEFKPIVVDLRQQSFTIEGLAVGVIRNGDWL

## L2 lariat: anti-LexA lariat, lactone-cyclized noose sequence (RSWDLPGEY), expressed from Ssp DnaE lariat intein with Asn to Ala at IC−1 (G7)
LexA
  MMC-induced LexA cleavage: not observed after three hours
[1]
  percentage of GFP expressing cells (sulA-GFP) after MMC: decreases
BL21-CP cells; of the control, IPTG induction plus MMC 0.1 μg/mL
  viability with lariat expression plus MMC: < 1%
BL21-CP cells; of the uninduced controls, IPTG induction, no MMC, 0.85% NaCl
  viability on expression of the lariat alone: ~35%
[2]; [3]
  fraction of product corresponding to hydrolyzed lariat (8669 Da) by MS: 85%
  fraction of product corresponding to the L2 lariat (8651 Da) by MS: 15%
[2]; from fraction of 18O incorporated after Na18OH cleavage and trypsin digest
  lariat cyclized prior to MS analysis: 46%
